Measurements: the supplement of paper PMC7877785
± gives the uncertainty stated by the source.

Assay: self-splicing fitness, log relative to wild type (ln ratio); higher = more splicing; Tetrahymena group I intron in knt gene, E. coli kanamycin selection, DiMSum; sequences stand for … in CUCUCU…GGAGGGAAAAGUUAUCAGGCAUGCACCUGGUAGCUAGUCUUUAAACCAAUAGAUUGCAUCGGUUUAAAAGGCAAGACCGUCAAAUUGCGGGAAAGGGGUCAACAGCCGUUCAGUACCAAGUCUCAGGGGAAACUUUGAGAUGGCCUUGCAAAGGGUAUGGUAAUAAGCUGACGGACAUGGUCCUAACCACGCAGCCAAGUCCUAAGUCAACAGAUCUUCUGUUGAUAUGGAUGCAGUUCACAGACUAAAUGUCGGUCGGGGAAGAUGUAUUCUUCUCAUAAGAUAUAGUCGGACCUCUCCUUAAUGGGAGCUAGCGGAUGAAGUGAUGCAACACUGGAGCCGCUGGGAACUAAUUUGUAUGCGAAAGUAUAUUGAUUAGUUUUGGAGUACUCGUGGUCG
Outline: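 The eight P1ex-region nucleotides of an intron in the knt kanamycin-resistance gene on pET-22b(+) were all randomised and the library put into E. coli BL21(DE3). Six replicate transformations were grown overnight at 37°C or 30°C on LB agar with or without 25 μg/mL kanamycin, together with 100 μg/mL carbenicillin, 50 μM IPTG and 0.2% rhamnose. Colonies were pooled and amplicon-sequenced on an Illumina HiSeq 2500. Fitness from DiMSum is the error-weighted combination of wild-type-normalised replicate fold changes, kanamycin over none.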

| Sequence | self-splicing fitness (ln) (30 °C) | self-splicing fitness (ln) (37 °C) |
| --- | --- | --- |
| GAGAAGCAAUAUUACGGGAG | -2.12 ± 0.13 | -1.63 ± 0.18 |
| ACAUAGCAAUAUUACGUAAC | -3.65 ± 0.23 | -3.2 ± 0.35 |
| UUGUAGCAAUAUUACGGUGU | -2.41 ± 0.42 | -2.3 ± 0.26 |
| UGUGAGCAAUAUUACGGACA | -1.44 ± 0.13 | 0.089 ± 0.13 |
| UGUAAGCAAUAUUACGGAGA | -2.88 ± 0.32 | -1.97 ± 0.42 |
| UUGUAGCAAUAUUACGUGUC | -3.17 ± 0.15 |  |
| GAUUAGCAAUAUUACGCUAG | -1.95 ± 0.17 | -0.989 ± 0.15 |
| CUUCAGCAAUAUUACGCAGA | -3.44 ± 0.37 | -2.18 ± 0.22 |
| GACCAGCAAUAUUACGUGGU | -2.67 ± 0.095 | -3.29 ± 0.15 |
| UCUAAGCAAUAUUACGGCAU | -3.46 ± 0.26 | -2.55 ± 0.21 |
| CGACAGCAAUAUUACGGGCC | -2.97 ± 0.17 | -2.43 ± 0.23 |
| ACGAAGCAAUAUUACGCCAC | -3.08 ± 0.19 | -2.56 ± 0.28 |
| GCUUAGCAAUAUUACGUACG | -1.07 ± 0.065 | 0.0666 ± 0.089 |
| CGGCAGCAAUAUUACGACGA | -1 ± 0.11 | -1.41 ± 0.14 |
| GUGUAGCAAUAUUACGGUUC | -1.04 ± 0.13 | -0.373 ± 0.16 |
| CGCCAGCAAUAUUACGAAUG | -0.783 ± 0.058 | 0.0658 ± 0.066 |
| CAACAGCAAUAUUACGAGCA | -2.97 ± 0.15 | -1.01 ± 0.11 |
| CCUUAGCAAUAUUACGUACG | -2.45 ± 0.22 | -2.2 ± 0.29 |
| AAUCAGCAAUAUUACGAUUG | -1.54 ± 0.064 | -0.631 ± 0.085 |

| Sequence | self-splicing fitness (ln) (30 °C) | self-splicing fitness (ln) (37 °C) |
| --- | --- | --- |
| GCUAAGCAAUAUUACGGGGC | -4.76 ± 0.38 | -2.87 ± 0.28 |
| GCCGAGCAAUAUUACGUUGA | -3 ± 0.16 | -2.88 ± 0.2 |
| CCCAAGCAAUAUUACGUUAU | -4.09 ± 0.2 | -2.96 ± 0.19 |
| CAACAGCAAUAUUACGCAGA | -3.45 ± 0.14 | -1.35 ± 0.075 |
| GAUUAGCAAUAUUACGAUCU | -0.776 ± 0.2 | -2.2 ± 0.38 |
| GCGAAGCAAUAUUACGAGAU | -2.89 ± 0.2 | -1.86 ± 0.22 |
| ACUCAGCAAUAUUACGGUCG | -3.23 ± 0.12 | -1.33 ± 0.1 |
| GGGGAGCAAUAUUACGUCUU | -1.91 ± 0.12 | -0.96 ± 0.18 |
| UUAUAGCAAUAUUACGACCU | -3.38 ± 0.29 | -0.509 ± 0.18 |
| UCCUAGCAAUAUUACGCGCC | -2.63 ± 0.17 | -2.29 ± 0.24 |
| CGCUAGCAAUAUUACGCGUU | -1.99 ± 0.15 | -2.51 ± 0.29 |
| AUCCAGCAAUAUUACGCGAG | -0.838 ± 0.065 | -0.241 ± 0.078 |
| GAACAGCAAUAUUACGAUCA | -0.605 ± 0.089 | -0.214 ± 0.11 |
| GACGAGCAAUAUUACGUAUG | -2.4 ± 0.17 | -1.58 ± 0.16 |
| ACGAAGCAAUAUUACGAAUU | -3.63 ± 0.17 | -2.37 ± 0.15 |
| AUCAAGCAAUAUUACGGGCU | -1.86 ± 0.079 | -0.884 ± 0.087 |
| CACUAGCAAUAUUACGCGCC | -2.9 ± 0.23 | -1.22 ± 0.22 |
| UUCGAGCAAUAUUACGUCUG | -2.57 ± 0.24 | -1.65 ± 0.22 |
